Test results reported in US12553037B2, “Engineered class 2, type V repressor systems” (Scribe Therapeutics Inc., priority 2021, dated 2026).
Where a chain is given by its changes, count along the chain named.

Experiments:
[1] = Editing assays comparing gRNA scaffolds 316 and 174
[2] = test system: human B2M locus; assay: Editing (indel rate by NGS) at the B2M locus by catalytically-dead CasX variants (Example 8); type: cell-based; settings: B2M-targeting spacer 7.37, HEK293T, six days after transfection
[3] = test system: endogenous B2M (beta-2-microglobulin) gene; assay: B2M protein expression by HLA antibody staining and flow cytometry (Example 1); type: cell-based, human; settings: HEK293T, seven days post-transfection
From the text: dXR variant plasmids encoding constructs having the configuration of U6-gRNA+Ef1α-NLS-GGS-dCasX491-GGS-KRAB variant-NLS (dCasX491 refers to catalytically-dead CasX 491), were transiently transfected into HEK293T cells in an arrayed 96-well format. These constructs also contained a 2× FLAG sequence, as well as sequences encoding either a gRNA scaffold 174 (SEQ ID NO: 2238) having a spacer (spacer 7.37) targeting the endogenous B2M (beta-2-microglobulin) gene or a non-targeting control (spacer 0.0), which were all cloned upstream of a P2A-puromycin element on the plasmid. Four different effector domains were tested in addition to the “naked” dCasX491 (KRAB variant domains listed in Table 9; spacer sequences listed in Table 10; sequences of additional elements listed in Table 11). The corresponding protein sequences of the dXR molecule are listed in Table 13, and the generic configuration of the dXR molecule is illustrated in FIG. 38. Positive and negative controls based on a catalytically-dead Cas9 nuclease (with or without a ZNF10 repressor) with a B2M-targeting gRNA (spacer 7.14) or a non-targeting gRNA control (spacer 0.0) were included, along with a catalytically-active CasX 491 and gRNA with the same 7.37 and 0.0 spacers. Two days after transfection, total RNA was harvested, and reverse transcribed to generate a cDNA library. Changes in gene expression were calculated by performing qPCR on the targeted gene and a housekeeping gene as reference. Relative gene expression represents the amount of target-specific RNA relative to a reference gene normalized to the non-targeting guide condition for two biological replicates. In addition to the wells used for RNA measurements, a separate set of wells was harvested seven days post-transfection and analyzed for B2M protein expression. Expression of B2M protein was determined by using an antibody that detects the B2M-dependent HLA protein complex on the cell surface.

[4] = test system: HBEGF locus; type: cell-based, human; settings: abundance of KRAB domain before vs after selection; 2 ng/mL diphtheria toxin for 48 hours; spacer 34.28; HEK293T

B1: 316 scaffold: chimeric gRNA scaffold, SEQ ID NO: 59352, 89 nucleotides (nucleic acid)
guide: ACUGGCGCUUCUAUCUGAUUACUCUGAGCGCCAUCACCAGCGACUAUGUCGUAGUGGGUAAAGCUCCCUCUUCGGAGGGAGCAUCAGAG
modifications: listed as RNA, further chemistry not given here
- performance in editing assays relative to gRNA scaffold 174 [1]: perform comparably or more favorably than gRNA scaffold 174

B2: dCasX491: catalytically-dead CasX 491, SEQ ID NO: 18 (protein)
chain: QEIKRINKIRRRLVKDSNTKKAGKTGPMKTLLVRVMTPDLRERLENLRKKPENIPQPISNTSRANLNKLLTDYTEMKKAILHVYWEEFQKDPVGLMSRVAQPASKKIDQNKLKPEMDEKGNLTTAGFACSQCGQPLFVYKLEQVSEKGKAYTNYFGRCNVAEHEKLILLAQLKPEKDSDEAVTYSLGKFGQRALDFYSIHVTKESTHPVKPLAQIAGNRYASGPVGKALSDACMGTIASFLSKYQDIIIEHQKVVKGNQKRLESLRELAGKENLEYPSVTLPPQPHTKEGVDAYNEVIARVRMWVNLNLWQKLKLSRDDAKPLLRLKGFPSFPLVERQANEVDWWDMVCNVKKLINEKKEDGKVFWQNLAGYKRQEALRPYLSSEEDRKKGKKFARYQLGDLLLHLEKKHGEDWGKVYDEAWERIDKKVEGLSKHIKLEEERRSEDAQSKAALTDWLRAKASFVIEGLKEADKDEFCRCELKLQKWYGDLRGKPFAIEAENSILDISGFSKQYNCAFIWQKDGVKKLNLYLIINYFKGGKLRFKKIKPEAFEANRFYTVINKKSGEIVPMEVNFNFDDPNLIILPLAFGKRQGREFIWNDLLSLETGSLKLANGRVIEKTLYNRRTRQDEPALFVALTFERREVLDSSNIKPMNLIGVARGENIPAVIALTDPEGCPLSRFKDSLGNPTHILRIGESYKEKQRTIQAKKEVEQRRAGGYSRKYASKAKNLADDMVRNTARDLLYYAVTQDAMLIFANLSRGFGRQGKRTFMAERQYTRMEDWLTAKLAYEGLSKTYLSKTLAQYTSKTCSNCGFTITSADYDRVLEKLKKTATGWMTTINGKELKVEGQITYYNRYKRQNVVKDLSVELDRLSEESVNNDISSWTKGRSGEALSLLKKRFSHRPVQEKFVCLNCGFETHAAEQAALNIARSWLFLRSQEYKKYQTNKTTGNTDKRAFVETWQSFYRKKLKEVWKPAV
- percent editing at the B2M locus measured as indel rate [2]: did not exhibit editing
- % of cells negative for the B2M protein ([3]; B2M-targeting gRNA): ~10%

B3: DOMAIN_26749: KRAB domain derived from the king cobra, Ophiophagus hannah; SEQ ID NO: 57755 (protein)
chain: STPVTFEDVVVYFTAAEWVHLTNWQRDFYQAVMMETYELVASVAGDGVPMAEDEEGGVERPVWQYIPRGKRRRKTPQPRAD
modifications: Ophiophagus hannah
- log2(fold change) [4]: highest log2(fold change)

B4: dCasX527: dCasX variant, SEQ ID NO: 24 (protein)
chain: QEIKRINKIRRRLVKDSNTKKAGKTRGPMKTLLVRVMTPDLRERLENLRKKPENIPQPISNTSRANLNKLLTDYTEMKKAILHVYWEEFQKDPVGLMSRVAQPASKKIDQNKLKPEMDEKGNLTTAGFACSQCGQPLFVYKLEQVSEKGKAYTNYFGRCNVAEHEKLILLAQLKPEKDSDEAVTYSLGKFGQRALDFYSIHVTKESTHPVKPLAQIAGNRYASGPVGKALSDACMGTIASFLSKYQDIIIEHQKVVKGNQKRLESLRELAGKENLEYPSVTLPPQPHTKEGVDAYNEVIARVRMWVNLNLWQKLKLSRDDAKPLLRLKGFPSFPLVERQANEVDWWDMVCNVKKLINEKKEDGKVFWQNLAGYKRQEALRPYLSSEEDRKKGKKFARYQLGDLLLHLEKKHGEDWGKVYDEAWERIDKKVEGLSKHIKLEEERRSEDAQSKAALTDWLRAKASFVIEGLKEADKDEFCRCELKLQKWYGDLRGKPFAIEAENSILDISGFSKQYNCAFIWQKDGVKKLNLYLIINYFKGGKLRFKKIKPEAFEANRFYTVINKKSGEIVPMEVNFNFDDPNLIILPLAFGKRQGREFIWNDLLSLETGSLKLANGRVIEKTLYNRRTRQDEPALFVALTFERREVLDSSNIKPMNLIGVARGENIPAVIALTDPEGCPLSRFKDSLGNPTHILRIGESYKEKQRTIQAKKEVEQRRAGGYSRKYASKAKNLADDMVRNTARDLLYYAVTQDAMLIFANLSRGFGRQGKRTFMAERQYTRMEDWLTAKLAYEGLSKTYLSKTLAQYTSKTCSNCGFTITSADYDRVLEKLKKTATGWMTTINGKELKVEGQITYYNRYKRQNVVKDLSVELDRLSEESVNNDISSWTKGRSGEALSLLKKRFSHRPVQEKFVCLNCGFETHAAEQAALNIARSWLFLRSQEYKKYQTNKTTGNTDKRAFVETWQSFYRKKLKEVWKPAV
- percent editing at the B2M locus measured as indel rate [2]: did not exhibit editing

B5: dCasX668: dCasX variant, SEQ ID NO: 59355 (protein)
chain: QEIKRINKIRRRLVKDSNTKKAGKTRGPMKTLLVRVMTPDLRERLENLRKKPENIPQPISNTSRANLNKLLTDYTEMKKAILHVYWEEFQKDPVGLMSRVAQPASKKIDQNKLKPEMDEKGNLTTAGFACSQCGQPLFVYKLEQVSEKGKAYTNYFGRCNVAEHEKLILLAQLKPEKDSDEAVTYSLGKFGQRALDFYSIHVTKESTHPVKPLAQIAGNRYASSPVGKALSDACMGTIASFLSKYQDIIIEHQKVVKGNQKRLESLRELAGKENLEYPSVTLPPQPHTKEGVDAYNEVIARVRMWVNLNLWQKLKLSRDDAKPLLRLKGFPSFPLVERQANEVDWWDMVCNVKKLINEKKEDGKVFWQNLAGYKRQEALRPYLSSEEDRKKGKKFARYQLGDLLLHLEKKHGEDWGKVYDEAWERIDKKVEGLSKHIKLEEERRSEDAQSKAALTDWLRAKASFVIEGLKEADKDEFCRCELKLQKWYGDLRGKPFAIEAENSILDISGFSKQYNCAFIWQKDGVKKLNLYLIINYFKGGKLRFKKIKPEAFEANRFYTVINKKSGEIVPMEVNFNFDDPNLIILPLAFGKRQGREFIWNDLLSLETGSLKLANGRVIEKTLYNRRTRQDEPALFVALTFERREVLDSSNIKPMNLIGVARGENIPAVIALTDPEGCPLSRFKDSLGNPTHILRIGESYKEKQRTIQAKKEVEQRRAGGYSRKYASKAKNLADDMVRNTARDLLYYAVTQDAMLIFANLSRGFGRQGKRTFMAERQYTRMEDWLTAKLAYEGLPSKTYLSKTLAQYTSKTCSNCGFTITSADYDRVLEKLKKTATGWMTTINGKELKVEGQITYYNRYKRQNVVKDLSVELDRLSEESVNNDISSWTKGRSGEALSLLKKRFSHRPVQEKFVCLNCGFETHAAEQAALNIARSWLFLRSQEYKKYQTNKTTGNTDKRAFVETWQSFYRKKLKEVWKPAV
- percent editing at the B2M locus measured as indel rate [2]: did not exhibit editing

B6: dCasX676: dCasX variant, SEQ ID NO: 59357 (protein)
chain: B5 chain with L169K
- percent editing at the B2M locus measured as indel rate [2]: did not exhibit editing

B7: dXR4: dCasX491 fused to ZNF334 KRAB domain; protein SEQ ID NO: 59441 (protein)
chain: MAPKKKRKVSRGGSGGGSAQEIKRINKIRRRLVKDSNTKKAGKTGPMKTLLVRVMTPDLRERLENLRKKPENIPQPISNTSRANLNKLLTDYTEMKKAILHVYWEEFQKDPVGLMSRVAQPASKKIDQNKLKPEMDEKGNLTTAGFACSQCGQPLFVYKLEQVSEKGKAYTNYFGRCNVAEHEKLILLAQLKPEKDSDEAVTYSLGKFGQRALDFYSIHVTKESTHPVKPLAQIAGNRYASGPVGKALSDACMGTIASFLSKYQDIIIEHQKVVKGNQKRLESLRELAGKENLEYPSVTLPPQPHTKEGVDAYNEVIARVRMWVNLNLWQKLKLSRDDAKPLLRLKGFPSFPLVERQANEVDWWDMVCNVKKLINEKKEDGKVFWQNLAGYKRQEALRPYLSSEEDRKKGKKFARYQLGDLLLHLEKKHGEDWGKVYDEAWERIDKKVEGLSKHIKLEEERRSEDAQSKAALTDWLRAKASFVIEGLKEADKDEFCRCELKLQKWYGDLRGKPFAIEAENSILDISGFSKQYNCAFIWQKDGVKKLNLYLIINYFKGGKLRFKKIKPEAFEANRFYTVINKKSGEIVPMEVNFNFDDPNLIILPLAFGKRQGREFIWNDLLSLETGSLKLANGRVIEKTLYNRRTRQDEPALFVALTFERREVLDSSNIKPMNLIGVARGENIPAVIALTDPEGCPLSRFKDSLGNPTHILRIGESYKEKQRTIQAKKEVEQRRAGGYSRKYASKAKNLADDMVRNTARDLLYYAVTQDAMLIFANLSRGFGRQGKRTFMAERQYTRMEDWLTAKLAYEGLSKTYLSKTLAQYTSKTCSNCGFTITSADYDRVLEKLKKTATGWMTTINGKELKVEGQITYYNRYKRQNVVKDLSVELDRLSEESVNNDISSWTKGRSGEALSLLKKRFSHRPVQEKFVCLNCGFETHAAEQAALNIARSWLFLRSQEYKKYQTNKTTGNTDKRAFVETWQSFYRKKLKEVWKPAVRSGGSGGGSTSKMKKFQIPVSFQDLTVNFTQEEWQQLDPAQRLLYRDVMLENYSNLVSVGYHVSKPDVIFKLEQGEEPWIVEEFSNQNYPDTSPKKKRKV
- % cells expressing B2M protein ([3]; spacer 0.0 (non-targeting)): 98.23%
- % cells expressing B2M protein ([3]; spacer 7.37 (B2M-targeting, CasX)): 19.80%
